Experimental data as given in publication PMC3578099 (Journal of structural biology, 2013).
Where two headings read alike, the source gives them in different places. Values belong to the binder of their own block, whether it stands above or below them. Square brackets hold non-standard residues; d marks the D form. Ends that are not written are not given here. pY = N[C@@H](Cc1ccc(OP(=O)(O)O)cc1)C(=O)O

Tests used:
[1] = biological target: T1, SHP-1 C453S catalytic domain (residues 243–530) (human, UniProt P29350 243-530, C453S); assay: ITC
[2] = biological target: T1, SHP-1 C453S catalytic domain (residues …); assay: ITC; remark: listed apart in the source

T1 sequence (P29350 243-530 C453S): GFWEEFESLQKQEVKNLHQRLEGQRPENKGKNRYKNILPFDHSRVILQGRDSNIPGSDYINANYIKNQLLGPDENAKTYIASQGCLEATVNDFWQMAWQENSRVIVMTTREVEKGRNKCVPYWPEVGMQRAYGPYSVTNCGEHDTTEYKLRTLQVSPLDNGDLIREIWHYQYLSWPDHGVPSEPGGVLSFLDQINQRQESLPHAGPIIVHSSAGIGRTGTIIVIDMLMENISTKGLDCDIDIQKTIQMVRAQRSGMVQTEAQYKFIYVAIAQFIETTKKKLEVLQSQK

Kd [1]: 13.4 µM
Kd [2]: 13.7 ± 1.4 µM
dH [2]: -28.7 ± 7.3 kcal/mol
stoichiometry N [2]: 0.7
B1: JAK1 activation loop phosphopeptide E1029TDKEpYYTVKD (peptide)
peptide: ETDKE[pY]YTVKD

Kd [2]: 5.6 ± 1.1 µM
dH [2]: -21.5 ± 3.5 kcal/mol
stoichiometry N [2]: 0.9
B2: JAK1 activation loop phosphopeptide E1029TDKEYpYTVKD (peptide)
peptide: ETDKEY[pY]TVKD
